According to PMC6937306:
Where “and” joins values, the source holds several entries; their conditions need not be identical. Equal values may be shown once.

How the values were obtained:
[1] = target: RAGE C2_TM_CT Mutant 2 (six amino acids that cover the GxxxG motif deleted) (human); assay: SEC-MALS; Superdex 200 Increase 10/300, 25 mM Tris-Cl, 0.2 M NaCl, pH 8.0, with 2x CMC DDM, room temperature; 'protein conjugate' analysis (ASTRA) of protein and detergent masses
[2] = target: RAGE V_C1 (V and C1 domains) (human); assay: native MS; about 10 uM protein; 100 mM ammonium acetate for V_C1 and C2, 500 mM for V_C1_C2; nano-ESI
[3] = target: RAGE V_C1_C2 (extracellular part of RAGE) (human); assay: as above
[4] = target: RAGE V_C1_C2 (extracellular part of RAGE) (human); assay: AUC; sedimentation velocity, 20 C, 40,000 rpm, 25 mM Tris pH 7.5, 200 mM NaCl, absorbance 280 nm; c(s) distribution (bimodal f/f0 for C2)
RAGE C2 domain (human) [5] = assay: SEC-MALS; Superdex 200 Increase 10/300, 25 mM Tris-Cl, 0.2 M NaCl, pH 8.0, room temperature, no detergent; C2 fractions re-chromatographed separately
RAGE C2 domain (human) [6] = assay: native MS; about 10 uM protein; 100 mM ammonium acetate for V_C1 and C2, 500 mM for V_C1_C2; nano-ESI
RAGE C2 domain (human) [7] = assay: AUC; sedimentation velocity, 20 C, 40,000 rpm, 25 mM Tris pH 7.5, 200 mM NaCl, absorbance 280 nm; c(s) distribution (bimodal f/f0 for C2)
RAGE C2 domain (human) [8] = assay: ESI-MS under denaturing conditions; 50% acetonitrile and 0.1% formic acid added to the protein sample
[9] = target: full-length RAGE (receptor for advanced glycation end-products) (human) (UniProt Q15109); assay: AUC; sedimentation velocity, 20 C, 42,000 rpm, 25 mM Tris pH 7.5, 200 mM NaCl with DDM; absorbance 280 nm and interference; f/fo analysis with the GUSSI Membrane Protein module for FL_RAGE
[10] = target: full-length RAGE (receptor for advanced glycation end-products) (human) (UniProt Q15109); assay: native MS; FL_RAGE about 10 uM in 600 mM ammonium acetate with 0.04% (2x CMC) Triton X-100; nano-ESI, collisional release from the micelle
[11] = target: RAGE C2_TM_CT Mutant 1 (four glycines in the region of the GxxxG motif mutated to alanine) (human); assay: SEC-MALS; Superdex 200 Increase 10/300, 25 mM Tris-Cl, 0.2 M NaCl, pH 8.0, with 2x CMC DDM, room temperature; 'protein conjugate' analysis (ASTRA) of protein and detergent masses
[12] = target: RAGE C2_TM_CT (C2 domain, transmembrane region and cytoplasmic tail) (human); assay: as above
[13] = target: RAGE C2_TM_CT (C2 domain, transmembrane region and cytoplasmic tail) (human); assay: ESI-MS under denaturing conditions; 50% acetonitrile and 0.1% formic acid added to the protein sample

RAGE C2_TM_CT Mutant 2 (six amino acids that cover the GxxxG motif deleted) (domain or fragment)
stoichiometry N [1]: 2

RAGE V_C1 (V and C1 domains) (domain or fragment)
fraction of dimeric signals [2]: 12% | stoichiometry N [2]: 2

RAGE V_C1_C2 (extracellular part of RAGE) (domain or fragment)
fraction of dimers [3]: 11% | stoichiometry N [3]: 2 | percent of the signal in the dimer peak [4]: 17% | stoichiometry N [4]: 2

RAGE C2 domain (domain or fragment)
stoichiometry N (RAGE C2 domain (human) [5]): 2 | fraction of dimeric signals (RAGE C2 domain (human) [6]): 33% | stoichiometry N (RAGE C2 domain (human) [6]): 2 | percent of the total signal in the dimer (RAGE C2 domain (human) [7]): > 65% | stoichiometry N (RAGE C2 domain (human) [7]): 2 | fraction of dimeric peaks under denaturing conditions (RAGE C2 domain (human) [8]): 27% | stoichiometry N (RAGE C2 domain (human) [8]): 2

full-length RAGE (receptor for advanced glycation end-products) (from UniProt Q15109 23-404)
stoichiometry N [9]: 2 and 3 | stoichiometry N [10]: 2 and 3 and 4

RAGE C2_TM_CT Mutant 1 (four glycines in the region of the GxxxG motif mutated to alanine) (domain or fragment)
stoichiometry N [11]: 2 and 3

RAGE C2_TM_CT (C2 domain, transmembrane region and cytoplasmic tail) (domain or fragment)
stoichiometry N [12]: 2 | stoichiometry N [13]: 2 and 4 and 6
